Experimental data taken from US20240317834A1, “COMPOSITIONS AND METHODS FOR NEUROLOGICAL DISEASES” (CODA BIOTHERAPEUTICS, INC., priority 2020, published 2024).
Substitutions are numbered along the chain they refer to. Numbers in names are those of the source.

Tested on: Lenti-X 293T cells
Assay: YFP fluorescence quenching anion reporter plate reader assay of engineered receptors stimulated with acetylcholine or a non-native ligand
Type: cell-based
Conditions: for percent quench of YFP fluorescence, 30 nM TC-6683: TC-6683 30 nM; for percent quench of YFP fluorescence, 300 nM TC-6683: TC-6683 300 nM; for percent quench of YFP fluorescence, 3 uM TC-6683: TC-6683 3 uM; for percent quench of YFP fluorescence, 30 uM TC-6683: TC-6683 30 uM; for percent quench of YFP fluorescence, 100 uM TC-6683: TC-6683 100 uM; for percent quench of YFP fluorescence, 10 uM ach: acetylcholine 10 uM; for percent quench of YFP fluorescence, 100 uM ach: acetylcholine 100 uM; for percent quench of YFP fluorescence, 1 mM ach: acetylcholine 1 mM; for percent quench of YFP fluorescence, 3 mM ach: acetylcholine 3 mM
How it was run: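 YFP quench was followed for about 1 min 43 s after ligand delivered in iodide-based ECS, pH 7.2. Values are end-of-read fluorescence (last 10 s) divided by the pre-ligand baseline (15 s). Cells were LX293T, transfected with receptor DNA a day before the assay.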

B1: CODA377: engineered chimeric LGIC receptor, S172D in SEQ ID NO: 33 (protein)
chain: MRCSPGGVWLALAASLLHVSLQGEFQRKLYKELVKNYNPLERPVANDSQPLTVYFSLSLLQIMDVDEKNQVLTTNIWLQMSWTDHYLQWNVSEYPGVKTVRFPDGQIWKPDILLYNSADERFDATFHTNVLVNSSGHCQYLPPGIFKSSCPMDLKNFPMDVQTCKLKFGSWDYGGWSLDLQMQEADISGYIPNGEWDLVGIPGKRSERFYECCKEPYPDVTFTVTMRRRMGYYLIQMYIPSLLIVILSWISFWINMDAAPARVGLGITTVLTMTTQSSGSRASLPKVSYVKAIDIWMAVCLLFVFSALLEYAAVNFVSRQHKELLRFRRKRRHHKSPMLNLFQEDEAGEGRFNFSAYGMGPACLQAKDGISVKGANNSNTTNPPPAPSKSPEEMRKLFIQRAKKIDKISRIGFPMAFLIFNMFYWIIYKIVRREDVHNQ
modifications: synthetic sequence of chimeric LGIC
- YFP fluorescence quenching using CNL001 (1 nM CNL001, first column): 67.544%
- YFP fluorescence quenching using CNL001 (1 nM CNL001, second column): 74.209%
- YFP fluorescence quenching using TC-5619/Bradanicline (1 nM brd): 0.77%
- YFP fluorescence quenching using TC-5619/Bradanicline (3 nM brd): −4.59%
- YFP fluorescence quenching using Varenicline (3 nM var, first column): −3.433
- YFP fluorescence quenching using Varenicline (3 nM var, second column): −5.737
- YFP fluorescence quenching using CNL001 (10 nM CNL001, first column): 74.346%
- YFP fluorescence quenching using CNL001 (10 nM CNL001, second column): 75.816%
- YFP fluorescence quenching using TC-5619/Bradanicline (10 nM brd): 0.06%
- YFP fluorescence quenching using TC-5619/Bradanicline (30 nM brd): −10.48%
- YFP fluorescence quenching using Facinicline (30 nM fac): 4.93
- YFP fluorescence quenching using Varenicline (30 nM var, first column): −5.319
- YFP fluorescence quenching using Varenicline (30 nM var, second column): −6.175
- YFP fluorescence quenching using CNL001 (50 nM CNL001, first column): 77.068%
- YFP fluorescence quenching using CNL001 (50 nM CNL001, second column): 76.99%
- YFP fluorescence quenching using ABT-126 (50 nM abt): −1.53%
- YFP fluorescence quenching using CNL001 (100 nM CNL001, first column): 79.352%
- YFP fluorescence quenching using CNL001 (100 nM CNL001, second column): 77.865%
- YFP fluorescence quenching using CNL002 (100 nM CNL002): 59.35%
- YFP fluorescence quenching using ABT-126 (100 nM abt): 18.18%
- YFP fluorescence quenching using AZD-0328 (100 nM azd0328): 65.04%
- YFP fluorescence quenching using TC-5619/Bradanicline (100 nM brd): 0.25%
- YFP fluorescence quenching using ABT-126 (300 nM abt): 59.15%
- YFP fluorescence quenching using AZD-0328 (300 nM azd0328): 81.73%
- YFP fluorescence quenching using TC-5619/Bradanicline (300 nM brd): −10.61%
- YFP fluorescence quenching using Facinicline (300 nM fac): 84.13
- YFP fluorescence quenching using Varenicline (300 nM var, first column): −4.135
- YFP fluorescence quenching using Varenicline (300 nM var, second column): −8.614
- YFP fluorescence quenching using Varenicline (500 nM var, first column): −6.062
- YFP fluorescence quenching using Varenicline (500 nM var, second column): −6.125
- YFP fluorescence quenching using CNL001 (1 uM CNL001, first column): 80.272%
- YFP fluorescence quenching using CNL001 (1 uM CNL001, second column): 79.432%
- YFP fluorescence quenching using CNL002 (1 uM CNL002): 79.26%
- YFP fluorescence quenching using ABT-126 (1 uM abt): 72.28%
- YFP fluorescence quenching using TC-5619/Bradanicline (1 uM brd): 3.82%
- YFP fluorescence quenching using TC-6987 (1 uM tc6987): −9.74
- YFP fluorescence quenching using Varenicline (1 uM var, first column): −14.134
- YFP fluorescence quenching using Varenicline (1 uM var, second column): −15.373
- YFP fluorescence quenching using TC-6987 (3 uM tc6987): −14.04
- YFP fluorescence quenching using TC-6987 (5 uM tc6987): −0.95
- YFP fluorescence quenching using Facinicline (10 uM fac): 66.96
- YFP fluorescence quenching using TC-6987 (10 uM tc6987): −7.41
- YFP fluorescence quenching using CNL002 (30 uM CNL002): 79.96%
- YFP fluorescence quenching using AZD-0328 (30 uM azd0328): 82.3%
- YFP fluorescence quenching using Facinicline (30 uM fac): 85.29
- YFP fluorescence quenching using TC-6987 (30 uM tc6987): −16.12
- YFP fluorescence quenching using TC-6987 (50 uM tc6987): −12.79
- YFP fluorescence quenching using TC-6987 (100 uM tc6987): −11.77
- YFP fluorescence quenching using TC-6987 (300 uM tc6987): −19.68
- YFP fluorescence quenching using TC-6987 (500 uM tc6987): −17.02
- percent quench of YFP fluorescence, 30 nM TC-6683: −20.23%
- percent quench of YFP fluorescence, 300 nM TC-6683: −13.94%
- percent quench of YFP fluorescence, 3 uM TC-6683: −14.17%
- percent quench of YFP fluorescence, 30 uM TC-6683: 1.86%
- percent quench of YFP fluorescence, 100 uM TC-6683: 43.61%
- percent quench of YFP fluorescence, 10 uM ach: −3.19%
- percent quench of YFP fluorescence, 100 uM ach: 0.07%
- percent quench of YFP fluorescence, 1 mM ach: 71.7%
- percent quench of YFP fluorescence, 3 mM ach: 76.95%

B2: CODA945: engineered chimeric LGIC receptor, Q139E in SEQ ID NO: 33 (protein)
chain: B1 chain with Q139E, D172S
modifications: synthetic sequence of chimeric LGIC
- YFP fluorescence quenching using CNL001 (1 nM CNL001, first column): 6.65%
- YFP fluorescence quenching using CNL001 (1 nM CNL001, second column): 13.512%
- YFP fluorescence quenching using TC-5619/Bradanicline (3 nM brd): 14.15%
- YFP fluorescence quenching using Varenicline (3 nM var, first column): 8.207
- YFP fluorescence quenching using Varenicline (3 nM var, second column): 7.835
- YFP fluorescence quenching using CNL001 (10 nM CNL001, first column): 78.678%
- YFP fluorescence quenching using CNL001 (10 nM CNL001, second column): 82.723%
- YFP fluorescence quenching using TC-5619/Bradanicline (30 nM brd): 78.18%
- YFP fluorescence quenching using Facinicline (30 nM fac): −7.16
- YFP fluorescence quenching using Varenicline (30 nM var, first column): 9.509
- YFP fluorescence quenching using Varenicline (30 nM var, second column): 10.204
- YFP fluorescence quenching using CNL001 (50 nM CNL001, first column): 84.91%
- YFP fluorescence quenching using CNL001 (50 nM CNL001, second column): 84.849%
- YFP fluorescence quenching using ABT-126 (50 nM abt): −8.27%
- YFP fluorescence quenching using CNL001 (100 nM CNL001, first column): 85.046%
- YFP fluorescence quenching using CNL001 (100 nM CNL001, second column): 84.642%
- YFP fluorescence quenching using CNL002 (100 nM CNL002): 60.5%
- YFP fluorescence quenching using ABT-126 (100 nM abt): 4.76%
- YFP fluorescence quenching using AZD-0328 (100 nM azd0328): −5.79%
- YFP fluorescence quenching using ABT-126 (300 nM abt): 30.88%
- YFP fluorescence quenching using AZD-0328 (300 nM azd0328): 58.47%
- YFP fluorescence quenching using TC-5619/Bradanicline (300 nM brd): 76.8%
- YFP fluorescence quenching using Facinicline (300 nM fac): 71.17
- YFP fluorescence quenching using Varenicline (300 nM var, first column): 9.818
- YFP fluorescence quenching using Varenicline (300 nM var, second column): 12.539
- YFP fluorescence quenching using Varenicline (500 nM var, first column): 16.762
- YFP fluorescence quenching using Varenicline (500 nM var, second column): 15.21
- YFP fluorescence quenching using CNL001 (1 uM CNL001, first column): 85.493%
- YFP fluorescence quenching using CNL001 (1 uM CNL001, second column): 86.071%
- YFP fluorescence quenching using CNL002 (1 uM CNL002): 75.41%
- YFP fluorescence quenching using ABT-126 (1 uM abt): 60.66%
- YFP fluorescence quenching using TC-6987 (1 uM tc6987): −0.97
- YFP fluorescence quenching using Varenicline (1 uM var, first column): 48.292
- YFP fluorescence quenching using Varenicline (1 uM var, second column): 54.096
- YFP fluorescence quenching using TC-6987 (10 uM tc6987): 21.53
- YFP fluorescence quenching using CNL002 (30 uM CNL002): 77.46%
- YFP fluorescence quenching using AZD-0328 (30 uM azd0328): 66.57%
- YFP fluorescence quenching using Facinicline (30 uM fac): 72.14
- YFP fluorescence quenching using TC-6987 (500 uM tc6987): 7.39
- percent quench of YFP fluorescence, 30 nM TC-6683: −26.47%
- percent quench of YFP fluorescence, 300 nM TC-6683: −18.62%
- percent quench of YFP fluorescence, 3 uM TC-6683: −13.39%
- percent quench of YFP fluorescence, 30 uM TC-6683: −16.6%
- percent quench of YFP fluorescence, 100 uM TC-6683: −12.89%
- percent quench of YFP fluorescence, 10 uM ach: −1.25%
- percent quench of YFP fluorescence, 100 uM ach: 71.21%
- percent quench of YFP fluorescence, 1 mM ach: 71.79%
- percent quench of YFP fluorescence, 3 mM ach: 76.04%
